According to publication PMC8615521, “Mitochondria-Mediated Apoptosis of HCC Cells Triggered by Knockdown of Glutamate Dehydrogenase 1: Perspective for Its Inhibition through Quercetin and Permethylated Anigopreissin A” (Biomedicines, 2021):

Test system: O=C(O)CCC(=O)C(=O)O
Experiment: purified protein
Details: NADH

Chain of GDH1 from bovine liver (glutamate dehydrogenase 1) (Bos taurus) (chain, as listed by the source): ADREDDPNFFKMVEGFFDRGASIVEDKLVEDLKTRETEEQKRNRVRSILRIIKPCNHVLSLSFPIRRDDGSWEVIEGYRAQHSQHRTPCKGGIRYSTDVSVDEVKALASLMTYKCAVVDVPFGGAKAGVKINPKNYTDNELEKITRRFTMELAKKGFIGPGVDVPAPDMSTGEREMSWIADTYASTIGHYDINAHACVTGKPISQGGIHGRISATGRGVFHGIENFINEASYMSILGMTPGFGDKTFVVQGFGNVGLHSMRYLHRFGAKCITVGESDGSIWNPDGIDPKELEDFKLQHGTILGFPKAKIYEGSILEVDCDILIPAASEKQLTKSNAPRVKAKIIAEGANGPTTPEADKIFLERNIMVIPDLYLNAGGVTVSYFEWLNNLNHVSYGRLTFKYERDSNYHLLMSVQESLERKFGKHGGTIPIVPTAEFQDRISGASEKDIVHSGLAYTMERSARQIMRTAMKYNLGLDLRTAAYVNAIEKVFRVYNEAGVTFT

**Q.** Which Km does the source give for “GDH1 from bovine liver (glutamate dehydrogenase 1) (Bos taurus)” here?
**A.** Its Km is 840 ± 20 µM.
